Data set [1] has as its target Full length His-CopD (Chlamydia pneumoniae CWL029) (UniProt Q9Z798). The data set can be described thus: SEC; co-expressed and Ni-NTA purified His-CopD and LcrH_1-S-tag (300 µL, 4.5 mg/mL), Superdex S200 10/300 GL, PBS + 0.03% LDAO, 0.5 mL/min; fractions blotted with anti-His and anti-S-tag; sizes from column standards. (In general: Size exclusion chromatography separates by hydrodynamic size, large species first.)

Data set [2] deals with the molecule itself. The data set is described as above.

Where “and” joins values, the source holds several entries; their conditions need not be identical. Identical values can stand only once.

In the case of LcrH_1-S-tag (natural protein), in data set [1], the stoichiometry N (LcrH 1 per CopD) amounted to 1.

B1: Full length His-CopD (natural protein)
chain: MTSGVSGSSSQDPTLAAQLAQSSQKAGNAQSGHDTKNVTKQGAQAEVAAGGFEDLIQDASAQSTGKKEATSSTTKSSKGEKSEKSGKSKSSTSVASASETATAQAVQGPKGLRQNNYDSPSLPTPEAQTINGIVLKKGMGTLALLGLVMTLMANAAGESWKASFQSQNQAIRSQVESAPAIGEAIKRQANHQASATEAQAKQSLISGIVNIVGFTVSVGAGIFSAAKGATSALKSASFAKETGASAAGGAASKALTSASSSVQQTMASTAKAATTAASSAGSAATKAAANLTDDMAAAASKMASDGASKASGGLFGEVLNKPNWSEKVSRGMNVVKTQGARVASFAGNALSSSMQMSQLMHGLTAAVEGLSAGQTGIEVAHHQRLAGQAEAQAEVLKQMSSVYGQQAGQAGQLQEQAMQSFNTALQTLQNIADSQTQTTSAIFN
notes: CopD (Cpn0808), Chlamydia pneumoniae CWL029, 444 amino acids (44.5 kDa); Eluted from SEC as decamer, tetramer and monomer; also called Cpn0808; source: E. coli Rosetta pLysS, co-expressed with LcrH_1-S-tag (pET-DUET), purified (Ni-NTA); not shown: 6×His, N-terminal, kept
Take B1: the “stoichiometry N” value in data set [2] is 10 and 4.

Broadly, the stoichiometry N is a count of units in the complex or per binding partner.

These data come from publication PMC4068993, “Chlamydia pneumoniae CopD Translocator Protein Plays a Critical Role in Type III Secretion (T3S) and Infection” (PLoS ONE, 2014).
